Measurements published in patent publication US6602687B1, “DNA encoding human ciliary neurotrophic factor and method for producing the protein encoded thereby” (Regeneron Pharmaceuticals, Inc., priority 1989, dated 2003).
Like-named read-outs stand apart in the source and are kept apart here.

Tested on: chick embryonic spinal motorneurons
Test: Survival of chick embryonic spinal motorneurons in culture
Assay type: cell-based
Experimental: Motorneuron columns were dissected under a stereomicroscope from the lumbar part of the spinal cord of chick embryos on the 6th day of embryonic development and stored in cold calcium and magnesium-free Hanks balanced salt solution supplemented with glucose (4 g/l) (HBSS). The tissues were washed with HBSS and treated with 0.03% trypsin in HBSS at 37° C. for 20 min with gentle shaking, rinsed with cold HBSS and triturated mildly in 3 steps of 8-passage agitation in 1 ml of cold 0.1% soybean trypsin inhibitor (Sigma) in HBSS through a fire-polished siliconized Pasteur pipette. Each supernatant cell suspension was filtered through 50 μm-Nylon mesh, pooled and layered onto 4 ml of cold 6.8% metrizamide (Fluka) in HBSS-25 mM HEPES (pH7.4) in a 12 ml-siliconized conical glass tube. The tube was centrifuged at 400 g for 15 min at 4° C. and the intermediate layer (0.5 ml) was collected into another siliconized tube containing 6.5 ml of cold culture medium (a mixture of glucose (4 g/l)-supplemented Leibovitz's L-15 medium (Gibco), 0.15 M sodium bicarbonate, heat-inactivated and filtered horse serum and penicillin G (10^5 units/ml) at the ratio of 75:15:10:0.1, freshly prepared and buffered with 5% CO2.) After centrifugation at 100×g for 7 min at 4° C., the supernatant was removed and the cells were gently resuspended in culture medium and plated in Greiner 4-well culture dishes (well diameter, 10 mm; C. A. Greiner und Sohne GmbH, Nurtingen, West Germany) at 1000-2000 cells/well. The dishes had been precoated with poly-DL-ornithine (Sigma, 0.5 mg in 0.15 M sodium borate buffer (pH 8.3) overnight at 4° C., rinsed twice with phosphate-buffered saline (PBS) and subsequently coated with laminin (Gibco; 10 μg/ml in the serum-depleted culture medium) and placed in a 5% CO2-incubator until cell plating (5-6 hrs). Cells were incubated at 37° C. in a humidified 5% CO2- and 95% air-incubator. Samples were added one hr after plating and the culture medium changed after 24 hrs and 72 hrs. The initial cell numbers were counted 3 hrs after plating.
In some experiments motor neurons were retrogradely labeled with a fluorescent dye in vivo before cell preparation (U. Dohrman et al., 1986, Dev. Biol. 118:209-221) to identify the motor neuron cell population. A small hole was made in the shell of eggs which had been incubated for 5 days. Small pieces of rhodamine isothiocyanate crystals (Sigma) were inserted at two or three places into each hind limb thigh and the egg hole was sealed with a cellophane tape. The eggs were incubated for another 24 hrs. Some of the operated embryos were then processed for frozen sections after formaldehyde fixation. […] The other embryos were used for cell preparation using the method described above (18.1.1). After 5 hrs in culture cells were rinsed with warm HBSS, fixed with 4% formaldehyde in PBS at room temperature for 20 min, rinsed with PBS and then mounted in glycerol-PBS (1:1) with glass coverslips. Of the total cells approximately 83% were labeled and identified as motorneurons (FIG. 42.) Most of these labeled motorneurons were large cells and the rest were intermediate-size cells. No small cells were labeled. On the other hand, in experiments in which cells were not labeled with a fluorescent dye about 70% of the total cells were large phase-bright cells with round cell somas, about 20% were intermediate-size neurons (most of them may be motorneurons) and about 10% were small immature neurons (they have neuron-like processes with growth cones but have phase-dark semi-flat cell somas). Non-neuronal cells were either not present or accounted for less than 2%. Taken together, one may conclude that at least 83% of the cells are motorneurons while the remainder consists of non-labeled motorneurons, a small number of unidentified intermediate-size neurons and about 10% immature small neurons. […]

B1: CNTF: ciliary neurotrophic factor; recombinant rat CNTF in Sections 10, 15, 17, purified rat sciatic nerve CNTF in Section 11; see endpoint conditions (protein, UniProt P20294 1-200, looked up)
Ciliary neurotrophic factor: MAFAEQTPLTLHRRDLCSRSIWLARKIRSDLTALMESYVKHQGLNKNINLDSVDGVPVASTDRWSEMTEAERLQENLQAYRTFQGMLTKLLEDQRVHFTPTEGDFHQAIHTLMLQVSAFAYQLEELMVLLEQKIPENEADGMPATVGDGGLFEKKLWGLKVLQELSQWTVRSIHDLRVISSHQMGISALESHYGAKDKQM
**Q.** Which “concentration at which the highest survival effect was obtained” value (3 days in culture) does the source give for B1 here?
**A.** The value was 1 ng/mL.

**Q.** What about the “highest survival effect of the concentration-response curve” value (3 days in culture, CNTF = recombinant rat) of the same molecule?
**A.** Its value is 64%.

**Q.** What about the “Motoneuron survival (%)” value (after 3 days in culture, mean ± SEM (n = 4), IGF-I 1 μg/ml, Basic FGF 30 ng/ml, CNTF 1.5 ng/ml) of the same molecule?
**A.** Its value is 60.7 ± 5.8%.

**Q.** And the Survival (after 3 days in culture, one concentration per molecule, Table VI, CNTF rat, rec.)?
**A.** The Survival was “+ + +”.

**Q.** What about the EC50 (motorneuron survival, 3 days in culture) of the same molecule?
**A.** Its EC50 is 0.023 ng/mL.

**Q.** What about the “EC50 (the concentration required for 50% survival)” value (recombinant rat CNTF, day 3) of the same molecule?
**A.** The value was “about 20 pg/ml”.

**Q.** What about the EC50 (recombinant rat CNTF, day 3, read-out: EC50 (the concentration required for 50% survival)) of the same molecule?
**A.** Its EC50 is ~1 pM.
